The target in this assay is T1, MBP-DGCR8 (human, UniProt Q8WYQ5 1-773).
T1 construct: DGCR8, human, full-length, in an MBP-tagged destination vector; also called purified DGCR8; source: bacterially purified (eluted with maltose)
T1 sequence (looked up): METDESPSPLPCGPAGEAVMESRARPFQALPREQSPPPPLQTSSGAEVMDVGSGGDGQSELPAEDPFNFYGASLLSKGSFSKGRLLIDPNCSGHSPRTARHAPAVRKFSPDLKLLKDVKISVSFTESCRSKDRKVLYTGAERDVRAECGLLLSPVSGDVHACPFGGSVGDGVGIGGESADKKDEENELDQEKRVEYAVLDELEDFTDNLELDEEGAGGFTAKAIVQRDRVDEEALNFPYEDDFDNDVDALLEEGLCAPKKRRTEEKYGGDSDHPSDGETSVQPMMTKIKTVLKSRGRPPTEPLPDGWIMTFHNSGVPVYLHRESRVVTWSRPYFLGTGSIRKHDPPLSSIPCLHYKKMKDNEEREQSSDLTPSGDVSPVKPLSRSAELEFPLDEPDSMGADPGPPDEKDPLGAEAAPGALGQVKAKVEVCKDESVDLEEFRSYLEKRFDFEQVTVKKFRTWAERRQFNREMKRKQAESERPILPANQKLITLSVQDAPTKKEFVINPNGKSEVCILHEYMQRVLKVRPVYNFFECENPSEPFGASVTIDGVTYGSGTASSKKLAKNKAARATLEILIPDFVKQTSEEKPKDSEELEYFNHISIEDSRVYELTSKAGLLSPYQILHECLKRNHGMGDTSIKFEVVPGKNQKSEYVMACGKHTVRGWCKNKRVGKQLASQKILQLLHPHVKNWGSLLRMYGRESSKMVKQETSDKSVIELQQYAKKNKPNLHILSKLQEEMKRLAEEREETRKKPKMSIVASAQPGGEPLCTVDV
The experiment in a line: pull-down; SFB-USP51 (or SFB-GFP) purified from transfected HEK293T cells, retained on S-protein beads and incubated with purified MBP-DGCR8, 4 °C overnight; washed with NETN buffer. The settings on record: both partners purified.

B1: SFB-USP51 (enzyme, human, UniProt Q70EK9 1-711, looked up)
chain: MAQVRETSLPSGSGVRWISGGGGGASPEEAVEKAGKMEEAAAGATKASSRREAEEMKLEPLQEREPAPEENLTWSSSGGDEKVLPSIPLRCHSSSSPVCPRRKPRPRPQPRARSRSQPGLSAPPPPPARPPPPPPPPPPPAPRPRAWRGSRRRSRPGSRPQTRRSCSGDLDGSGDPGGLGDWLLEVEFGQGPTGCSHVESFKVGKNWQKNLRLIYQRFVWSGTPETRKRKAKSCICHVCSTHMNRLHSCLSCVFFGCFTEKHIHKHAETKQHHLAVDLYHGVIYCFMCKDYVYDKDIEQIAKETKEKILRLLTSTSTDVSHQQFMTSGFEDKQSTCETKEQEPKLVKPKKKRRKKSVYTVGLRGLINLGNTCFMNCIVQALTHIPLLKDFFLSDKHKCIMTSPSLCLVCEMSSLFHAMYSGSRTPHIPYKLLHLIWIHAEHLAGYRQQDAHEFLIAILDVLHRHSKDDSGGQEANNPNCCNCIIDQIFTGGLQSDVTCQACHSVSTTIDPCWDISLDLPGSCATFDSQNPERADSTVSRDDHIPGIPSLTDCLQWFTRPEHLGSSAKIKCNSCQSYQESTKQLTMKKLPIVACFHLKRFEHVGKQRRKINTFISFPLELDMTPFLASTKESRMKEGQPPTDCVPNENKYSLFAVINHHGTLESGHYTSFIRQQKDQWFSCDDAIITKATIEDLLYSEGYLLFYHKQGLEKD
notes: USP51, human DUB ORF in the pBabe-SFB vector; also called SFB-tagged USP51; source: HEK293T, transfected, in lysate; purified from transfected HEK293T cells
Consider B1, for which the binding result is given as “binds”.
